Each block holds one binder with its values, some of them ahead of it.
Molecular target: human PSMA protein (ELISA) (human, UniProt Q04609 44-750)
Test: BLI (Octet)

Sequence of human PSMA protein (ELISA) (Q04609 44-750): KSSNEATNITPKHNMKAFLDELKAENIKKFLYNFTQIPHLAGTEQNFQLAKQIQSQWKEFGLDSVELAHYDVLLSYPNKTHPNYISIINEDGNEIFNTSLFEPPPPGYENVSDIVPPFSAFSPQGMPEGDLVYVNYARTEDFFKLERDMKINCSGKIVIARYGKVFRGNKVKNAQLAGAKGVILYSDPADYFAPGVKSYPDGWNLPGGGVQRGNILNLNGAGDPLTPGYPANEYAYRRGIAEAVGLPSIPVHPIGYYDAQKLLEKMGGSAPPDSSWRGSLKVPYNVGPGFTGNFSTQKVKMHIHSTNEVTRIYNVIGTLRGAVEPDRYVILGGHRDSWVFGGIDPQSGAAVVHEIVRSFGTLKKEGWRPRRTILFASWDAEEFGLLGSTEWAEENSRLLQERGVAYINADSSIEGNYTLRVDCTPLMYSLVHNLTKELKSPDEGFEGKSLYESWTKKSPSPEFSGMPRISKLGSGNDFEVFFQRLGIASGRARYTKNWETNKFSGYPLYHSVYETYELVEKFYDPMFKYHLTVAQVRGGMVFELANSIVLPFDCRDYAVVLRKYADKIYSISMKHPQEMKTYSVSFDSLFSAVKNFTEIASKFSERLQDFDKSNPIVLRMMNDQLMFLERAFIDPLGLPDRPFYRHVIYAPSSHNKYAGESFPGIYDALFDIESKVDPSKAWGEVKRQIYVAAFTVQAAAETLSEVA

Kd: 17 nM
B1: Anti-PSMA heavy chain-only antibody (UniAb) Clone ID 325972 (antibody, V domains shown)
VH: EVQLLESGGGVVQPGRSLRLSCAASGFSFSGYGMHWVRQAPGKEREWVAVISYDGSNKYYADSVKGRFTISRDNSKNTLYLQMNSLRAEDTAVYYCAKDANWGQHPDHTSFDYRGQGTLVTVSS

Kd: 24.9 nM
B2: Anti-PSMA heavy chain-only antibody (UniAb) Clone ID 325795 (antibody, V domains shown)
VH: EVQLLESGGGLVQPGGSLRLSCAASGFTFKFYAMSWVRQAPGKGPEWVSVISGSGGSTYYADSVKGRFTISRDNSKNTLHLQMNSLRAEDTAVYFCAKEIAEASRGFDYRGQGTLVTVSS
